Tests used:
JR-CSF N276A [1] = biological target: JR-CSF N276A
BG505 T372A [2] = biological target: BG505 T372A
BG505 K121A [3] = biological target: BG505 K121A
JR-CSF N362A [4] = biological target: JR-CSF N362A
JR-CSF N283A [5] = biological target: JR-CSF N283A
JR-CSF T198A [6] = biological target: JR-CSF T198A
JR-CSF S365A [7] = biological target: JR-CSF S365A
JR-CSF G471A [8] = biological target: JR-CSF G471A
BG505 G471A [9] = biological target: BG505 G471A
JR-CSF R476A [10] = biological target: JR-CSF R476A
BG505 R476A [11] = biological target: BG505 R476A
JR-CSF S199A [12] = biological target: JR-CSF S199A
BG505 S364A [13] = biological target: BG505 S364A
BG505 L369A [14] = biological target: BG505 L369A
BG505 N332T [15] = biological target: BG505 N332T
BG505 L179A [16] = biological target: BG505 L179A
BG505 N363A [17] = biological target: BG505 N363A
JR-CSF K207A [18] = biological target: JR-CSF K207A
BG505 S365A [19] = biological target: BG505 S365A
BG505 T373A [20] = biological target: BG505 T373A
[21] = biological target: BG505 gp120 captured from lysed virions (HIV isolate BG505); test: ELISA on BG505 gp120 in PBS pH 7.4
JR-CSF N276A [22] = test: ELISA, gp120 captured from lysed virions
JR-CSF G366A = test: ELISA, gp120 captured from lysed virions
BG505 V371A = test: ELISA, gp120 captured from lysed virions
BG505 T372A [23] = test: ELISA, gp120 captured from lysed virions
JR-CSF T373A = test: ELISA, gp120 captured from lysed virions
BG505 M475A = test: ELISA, gp120 captured from lysed virions
BG505 K121A [24] = test: ELISA, gp120 captured from lysed virions
JR-CSF N362A [25] = test: ELISA, gp120 captured from lysed virions
BG505 N197A = test: ELISA, gp120 captured from lysed virions
JR-CSF N283A [26] = test: ELISA, gp120 captured from lysed virions
BG505 G367A = test: ELISA, gp120 captured from lysed virions
JR-CSF T198A [27] = test: ELISA, gp120 captured from lysed virions
JR-CSF S365A [28] = test: ELISA, gp120 captured from lysed virions
BG505 N283A = test: ELISA, gp120 captured from lysed virions
JR-CSF G471A [29] = test: ELISA, gp120 captured from lysed virions
BG505 G471A [30] = test: ELISA, gp120 captured from lysed virions
JR-CSF R476A [31] = test: ELISA, gp120 captured from lysed virions
JR-CSF N262A = test: ELISA, gp120 captured from lysed virions
BG505 R476A [32] = test: ELISA, gp120 captured from lysed virions
JR-CSF S199A [33] = test: ELISA, gp120 captured from lysed virions
JR-CSF V371A = test: ELISA, gp120 captured from lysed virions
BG505 S364A [34] = test: ELISA, gp120 captured from lysed virions
BG505 L369A [35] = test: ELISA, gp120 captured from lysed virions
BG505 N332T [36] = test: ELISA, gp120 captured from lysed virions
BG505 L179A [37] = test: ELISA, gp120 captured from lysed virions
[38] = biological target: BG505 gp120 captured from lysed virions (HIV isolate BG505); test: ELISA, gp120 captured from lysed virions
BG505 N363A [39] = test: ELISA, gp120 captured from lysed virions
JR-CSF G473A = test: ELISA, gp120 captured from lysed virions
BG505 E370A = test: ELISA, gp120 captured from lysed virions
BG505 G366A = test: ELISA, gp120 captured from lysed virions
JR-CSF G472A = test: ELISA, gp120 captured from lysed virions
JR-CSF E370A = test: ELISA, gp120 captured from lysed virions
JR-CSF N279A = test: ELISA, gp120 captured from lysed virions
JR-CSF K207A [40] = test: ELISA, gp120 captured from lysed virions
BG505 S365A [41] = test: ELISA, gp120 captured from lysed virions
BG505 T373A [42] = test: ELISA, gp120 captured from lysed virions
[43] = biological target: JR-CSF Env on JR-CSF pseudovirus
[44] = biological target: BG505 Env on BG505 pseudovirus (HIV isolate BG505)
[45] = biological target: gp120 (isolate 92BR020) (HIV-1 isolate 92BR020); test: ELISA on gp120 (isolate 92BR020), buffer pH 6
[46] = biological target: gp120 (isolate 92BR020) (HIV-1 isolate 92BR020); test: ELISA on gp120 (isolate 92BR020), buffer pH 5.5

Substance: NC-Cow1 (antibody)
- IC50, pseudovirus neutralization (JR-CSF N276A [1]): 1.76 µg/mL
- IC50, pseudovirus neutralization (BG505 T372A [2]): 0.028 µg/mL
- IC50, pseudovirus neutralization (BG505 K121A [3]): 0.029 µg/mL
- IC50, pseudovirus neutralization (JR-CSF N362A [4]): 0.496 µg/mL
- IC50, pseudovirus neutralization (JR-CSF N283A [5]): 6.94 µg/mL
- IC50, pseudovirus neutralization (JR-CSF T198A [6]): 2.98 µg/mL
- IC50, pseudovirus neutralization (JR-CSF S365A [7]): 0.129 µg/mL
- IC50, pseudovirus neutralization (JR-CSF G471A [8]): 50 µg/mL
- IC50, pseudovirus neutralization (BG505 G471A [9]): 0.013 µg/mL
- IC50, pseudovirus neutralization (JR-CSF R476A [10]): > 50 µg/mL
- IC50, pseudovirus neutralization (BG505 R476A [11]): 0.012 µg/mL
- IC50, pseudovirus neutralization (JR-CSF S199A [12]): 0.404 µg/mL
- IC50, pseudovirus neutralization (BG505 S364A [13]): 0.014 µg/mL
- IC50, pseudovirus neutralization (BG505 L369A [14]): 0.015 µg/mL
- IC50, pseudovirus neutralization (BG505 N332T [15]): 0.018 µg/mL
- IC50, pseudovirus neutralization (BG505 L179A [16]): 0.018 µg/mL
- IC50, pseudovirus neutralization (BG505 N363A [17]): 0.013 µg/mL
- IC50, pseudovirus neutralization (JR-CSF K207A [18]): 1.8 µg/mL
- IC50, pseudovirus neutralization (BG505 S365A [19]): 0.015 µg/mL
- IC50, pseudovirus neutralization (BG505 T373A [20]): 0.016 µg/mL
- EC50 (read off the curve) [21]: 0.1 µg/mL
- EC50 (JR-CSF N276A [22]): 0.029 µg/mL
- EC50 (JR-CSF G366A): 0.027 µg/mL
- EC50 (BG505 V371A): 0.24 µg/mL
- EC50 (BG505 T372A [23]): 0.07 µg/mL
- EC50 (JR-CSF T373A): 0.067 µg/mL
- EC50 (BG505 M475A): 0.08 µg/mL
- EC50 (BG505 K121A [24]): 0.04 µg/mL
- EC50 (JR-CSF N362A [25]): 0.038 µg/mL
- EC50 (BG505 N197A): 0.04 µg/mL
- EC50 (JR-CSF N283A [26]): 0.133 µg/mL
- EC50 (BG505 G367A): 1.34 µg/mL
- EC50 (JR-CSF T198A [27]): 0.045 µg/mL
- EC50 (JR-CSF S365A [28]): 0.028 µg/mL
- EC50 (BG505 N283A): 0.1 µg/mL
- EC50 (JR-CSF G471A [29]): 0.148 µg/mL
- EC50 (BG505 G471A [30]): 0.05 µg/mL
- EC50 (JR-CSF R476A [31]): 0.281 µg/mL
- EC50 (JR-CSF N262A): 5.64 µg/mL
- EC50 (BG505 R476A [32]): 0.07 µg/mL
- EC50 (JR-CSF S199A [33]): 0.058 µg/mL
- EC50 (JR-CSF V371A): 1.36 µg/mL
- EC50 (BG505 S364A [34]): 0.14 µg/mL
- EC50 (BG505 L369A [35]): 0.24 µg/mL
- EC50 (BG505 N332T [36]): 0.05 µg/mL
- EC50 (BG505 L179A [37]): 0.05 µg/mL
- EC50 [38]: 0.04 µg/mL
- EC50 (BG505 N363A [39]): 0.09 µg/mL
- EC50 (JR-CSF G473A): 6.83 µg/mL
- EC50 (BG505 E370A): 0.11 µg/mL
- EC50 (BG505 G366A): 0.13 µg/mL
- EC50 (JR-CSF G472A): 11.2 µg/mL
- EC50 (JR-CSF E370A): 1.16 µg/mL
- EC50 (JR-CSF N279A): 0.036 µg/mL
- EC50 (JR-CSF K207A [40]): 0.052 µg/mL
- EC50 (BG505 S365A [41]): 0.07 µg/mL
- EC50 (BG505 T373A [42]): 0.12 µg/mL

Substance: 12A12 (antibody)
- IC50, pseudovirus neutralization (JR-CSF N276A [1]): 2.72 µg/mL
- IC50, pseudovirus neutralization (BG505 T372A [2]): 0.037 µg/mL
- IC50, pseudovirus neutralization (BG505 K121A [3]): 0.053 µg/mL
- IC50, pseudovirus neutralization (JR-CSF N362A [4]): 0.11 µg/mL
- IC50, pseudovirus neutralization (JR-CSF N283A [5]): 0.219 µg/mL
- IC50, pseudovirus neutralization (JR-CSF M373A): 0.134 µg/mL
- IC50, pseudovirus neutralization (JR-CSF T198A [6]): 0.622 µg/mL
- IC50, pseudovirus neutralization (JR-CSF S365A [7]): 0.18 µg/mL
- IC50, pseudovirus neutralization (JR-CSF K282A): 2.33 µg/mL
- IC50, pseudovirus neutralization (JR-CSF G471A [8]): 0.114 µg/mL
- IC50, pseudovirus neutralization (BG505 G471A [9]): 0.029 µg/mL
- IC50, pseudovirus neutralization (JR-CSF R476A [10]): 0.082 µg/mL
- IC50, pseudovirus neutralization (BG505 R476A [11]): 0.026 µg/mL
- IC50, pseudovirus neutralization (JR-CSF S199A [12]): 0.032 µg/mL
- IC50, pseudovirus neutralization (JR-CSF D279A): > 50 µg/mL
- IC50, pseudovirus neutralization (BG505 N276A): 0.003 µg/mL
- IC50, pseudovirus neutralization (BG505 S364A [13]): 0.032 µg/mL
- IC50, pseudovirus neutralization [43]: 0.219 µg/mL
- IC50, pseudovirus neutralization (JR-CSF D474A): 0.075 µg/mL
- IC50, pseudovirus neutralization (BG505 L369A [14]): 0.03 µg/mL
- IC50, pseudovirus neutralization (BG505 N332T [15]): 0.031 µg/mL
- IC50, pseudovirus neutralization (BG505 L179A [16]): 0.056 µg/mL
- IC50, pseudovirus neutralization (BG505 D474A): 0.02 µg/mL
- IC50, pseudovirus neutralization (BG505 K282A): 0.04 µg/mL
- IC50, pseudovirus neutralization (JR-CSF V372A): 0.214 µg/mL
- IC50, pseudovirus neutralization (BG505 N363A [17]): 0.038 µg/mL
- IC50, pseudovirus neutralization (BG505 N262A): 0.017 µg/mL
- IC50, pseudovirus neutralization (JR-CSF P369A): 0.205 µg/mL
- IC50, pseudovirus neutralization (JR-CSF K207A [18]): 0.383 µg/mL
- IC50, pseudovirus neutralization (BG505 N279A): 0.058 µg/mL
- IC50, pseudovirus neutralization (BG505 S365A [19]): 0.057 µg/mL
- IC50, pseudovirus neutralization [44]: 0.02 µg/mL
- IC50, pseudovirus neutralization (BG505 T373A [20]): 0.039 µg/mL
- EC50 (read off the curve) [45]: 0.4 µg/mL
- EC50 (read off the curve) [46]: 0.4 µg/mL

— patent publication US20200165324A1
